This note sets out measurements from patent US20230212319A1, “NOVEL ANTIGEN BINDING DOMAINS AND SYNTHETIC ANTIGEN RECEPTORS INCORPORATING THE SAME” (University of Southern California, priority 2020, published 2023).

Format in all cases: cell-based
One assay deals with Nalm6 cells. The assay can be described thus: JNG assay, co-culture with Nalm6 cells. Conditions: co-culture with Nalm6. An outline of the steps: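 Values are semi-quantitative grades of GFP induction, each step approximating 10% more GFP+ cells (5+ ≈50%) above parental reporter cells, measured by FACS after SAR-transduced JNG cells were cultured with targets at ~1:2 E:T for ~4–18 h.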

The next assay relates to L363 cells. The assay can be described thus: JNG assay, co-culture with L363 cells. Conditions: co-culture with L363. An outline of the steps:
(§1)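 Jurkat-NFAT-GFP (JNG) cells stably expressing SAR constructs via lentiviral transduction and puromycin/blasticidin selection were cocultured with target cells at E:T ~1:2 for ~4–18 h. NFAT-driven GFP was measured by FACS versus parental JNG cells; scores +/- to 5+ denote ~5–50% GFP-positive cells.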

The next assay concerns RAJI cells. The assay can be described thus: JNG assay, co-culture with RAJI cells. The settings on record: JNG cells expressing construct, co-culture with Raji. An outline of the steps:
as §1

B1: 22067 (protein)
chain: MALPVTALLLPLALLLHAARPQLQLQESGPGLVKPSETLSLTCTVSGDSISSGDYYWGWIRQPPGKGLEWIGHIYYSGVTYYNPSLKSRVTISVDTSRNQFSLKLSSVTAADTAVYYCTREDSSNWRSRGQGTLVTVSSLEAAAKEDLKNVFPPEVAVFEPSEAEISHTQKATLVCLATGFYPDHVELSWWVNGKEVHSGVCTDPQPLKEQPALNDSRYCLSSRLRVSATFWQNPRNHFRCQVQFYGLSENDEWTQDRAKPVTQIVSAEAWGRADCGFTSESYQQGVLSATILYEILLGKATLYAVLVSALVLMAMVKRKDSRGRAKRSGSGATNFSLLKQAGDVEENPGPTSMDWIWRILFLVGAATGAHSFEVQLLESGGGLIQPGGSLRLSCAASGFTFSSHAMTWVRQAPGKGLEWVSAISGSGDYTHYADSVKGRFTISRDNSKNTVYLQMNSLRAEDSAVYYCAKDEDGGSLLGHRGQGTLVTVSSTRIQNPDPAVYQLRDSKSSDKSVCLFTDFDSQTNVSQSKDSDVYITDKCVLDMRSMDFKSNSAVAWSNKSDFACANAFNNSIIPEDTFFPSPESSCDVKLVEKSFETDTNLNFQNLSVIGFRILLLKVAGFNLLMTLRLWSSRAKRSGSGVKQTLNFDLLKLAGDVESNPGPSRGHMTEYKPTVRLATRDDVPRAVRTLAAAFADYPATRHTVDPDRHIERVTELQELFLTRVGLDIGKVWVADDGAAVAVWTTPESVEAGAVFAEIGPRMAELSGSRLAAQQQMEGLLAPHRPKEPAWFLATVGVSPDHQGKGLGSAVVLPGVEAAERAGVPAFLETSAPRNLPFYERLGFTVTADVEVPEGPRTWCMTRKPGA
B1: the “NFAT-GFP ASSAY: Nalm6” value with Nalm6 cells was “+/- (refer to approximately 5%, 10%, 20%, 30%, 40% and 50% GFP positive cells)”. Besides, the “NFAT-GFP ASSAY: L363” value in the assay with L363 cells was “+ (refer to approximately 5%, 10%, 20%, 30%, 40% and 50% GFP positive cells)”. Also, the “NFAT-GFP ASSAY: Raji” value with RAJI cells was “+/- (refer to approximately 5%, 10%, 20%, 30%, 40% and 50% GFP positive cells)”.

B2: 22046 (protein)
chain: MALPVTALLLPLALLLHAARPQLQLQESGPGLVKPSETLSLTCTVSGDSISSGDYYWGWIRQPPGKGLEWIGHIYYSGVTYYNPSLKSRVTISVDTSRNQFSLKLSSVTAADTAVYYCTREDSSNWRSRGQGTLVTVSSLESGGGGSFEEVQLLESGGGLVQPGGSLRLSCAASGFTFSSYAMSWVRQAPGKGLEWVSSISGSGDYIYYADSVKGRFTISRDISKNTLYLQMNSLRAEDTAVYYCAKEGTGANSSLADYRGQGTLVTVSSTRDKTHTCPPCPAIPEDTFFPSPESSCDVKLVEKSFETDTNLNFQNLSVIGFRILLLKVAGFNLLMTLRLWSSRAKRSGSGVKQTLNFDLLKLAGDVESNPGPSRGHMTEYKPTVRLATRDDVPRAVRTLAAAFADYPATRHTVDPDRHIERVTELQELFLTRVGLDIGKVWVADDGAAVAVWTTPESVEAGAVFAEIGPRMAELSGSRLAAQQQMEGLLAPHRPKEPAWFLATVGVSPDHQGKGLGSAVVLPGVEAAERAGVPAFLETSAPRNLPFYERLGFTVTADVEVPEGPRTWCMTRKPGA
B2: in the assay on Nalm6 cells, the “NFAT-GFP ASSAY: Nalm6” value is “+/- (refer to approximately 5%, 10%, 20%, 30%, 40% and 50% GFP positive cells)”. Further, the “NFAT-GFP ASSAY: L363” value with L363 cells is “+ (refer to approximately 5%, 10%, 20%, 30%, 40% and 50% GFP positive cells)”. Also, the “NFAT-GFP ASSAY: Raji” value with RAJI cells was 2+ (refer to approximately 5%, 10%, 20%, 30%, 40% and 50% GFP positive cells).

B3: 22066 (protein)
chain: MALPVTALLLPLALLLHAARPQLQLQESGPGLVKPSETLSLTCTVSGDSISSGDYYWGWIRQPPGKGLEWIGHIYYSGVTYYNPSLKSRVTISVDTSRNQFSLKLSSVTAADTAVYYCTREDSSNWRSRGQGTLVTVSSLEVAALEREDLKNVFPPEVAVFEPSEAEISHTQKATLVCLATGFYPDHVELSWWVNGKEVHSGVCTDPQPLKEQPALNDSRYCLSSRLRVSATFWQNPRNHFRCQVQFYGLSENDEWTQDRAKPVTQIVSAEAWGRADCGFTSESYQQGVLSATILYEILLGKATLYAVLVSALVLMAMVKRKDSRGRAKRSGSGATNFSLLKQAGDVEENPGPTSMDWIWRILFLVGAATGAHSFEVQLLESGGGLIQPGGSLRLSCAASGFTFSSHAMTWVRQAPGKGLEWVSAISGSGDYTHYADSVKGRFTISRDNSKNTVYLQMNSLRAEDSAVYYCAKDEDGGSLLGHRGQGTLVTVSSTRIQNPDPAVYQLRDSKSSDKSVCLFTDFDSQTNVSQSKDSDVYITDKCVLDMRSMDFKSNSAVAWSNKSDFACANAFNNSIIPEDTFFPSPESSCDVKLVEKSFETDTNLNFQNLSVIGFRILLLKVAGFNLLMTLRLWSSRAKRSGSGVKQTLNFDLLKLAGDVESNPGPSRGHMTEYKPTVRLATRDDVPRAVRTLAAAFADYPATRHTVDPDRHIERVTELQELFLTRVGLDIGKVWVADDGAAVAVWTTPESVEAGAVFAEIGPRMAELSGSRLAAQQQMEGLLAPHRPKEPAWFLATVGVSPDHQGKGLGSAVVLPGVEAAERAGVPAFLETSAPRNLPFYERLGFTVTADVEVPEGPRTWCMTRKPGA
Regarding B3, the “NFAT-GFP ASSAY: Nalm6” value with Nalm6 cells was “+/- (refer to approximately 5%, 10%, 20%, 30%, 40% and 50% GFP positive cells)”. For the same molecule, in the assay with L363 cells, the “NFAT-GFP ASSAY: L363” value is “+/- (refer to approximately 5%, 10%, 20%, 30%, 40% and 50% GFP positive cells)”. Also, the “NFAT-GFP ASSAY: Raji” value in the assay with RAJI cells is “+/- (refer to approximately 5%, 10%, 20%, 30%, 40% and 50% GFP positive cells)”.

B4: 22021 (protein)
chain: MALPVTALLLPLALLLHAARPQLQLQESGPGLVKPSETLSLTCTVSGDSISSGDYYWGWIRQPPGKGLEWIGHIYYSGVTYYNPSLKSRVTISVDTSRNQFSLKLSSVTAADTAVYYCTREDSSNWRSRGQGTLVTVSSLESGGGGSFEEVQLLESGGGLVQPGGSLRLSCAASGFTFSSYAMSWVRQAPGKGLEWVSSISGSGDYIYYADSVKGRFTISRDISKNTLYLQMNSLRAEDTAVYYCAKEGTGANSSLADYRGQGTLVTVSSTRIQNPDPAVYQLRDSKSSDKSVCLFTDFDSQTNVSQSKDSDVYITDKCVLDMRSMDFKSNSAVAWSNKSDFACANAFNNSIIPEDTFFPSPESSCDVKLVEKSFETDTNLNFQNLSVIGFRILLLKVAGFNLLMTLRLWSSRAKRSGSGVKQTLNFDLLKLAGDVESNPGPSRGHMTEYKPTVRLATRDDVPRAVRTLAAAFADYPATRHTVDPDRHIERVTELQELFLTRVGLDIGKVWVADDGAAVAVWTTPESVEAGAVFAEIGPRMAELSGSRLAAQQQMEGLLAPHRPKEPAWFLATVGVSPDHQGKGLGSAVVLPGVEAAERAGVPAFLETSAPRNLPFYERLGFTVTADVEVPEGPRTWCMTRKPGA
Regarding B4, the “NFAT-GFP ASSAY: Nalm6” value in the assay on Nalm6 cells is “Raji (+/-), Nalm6 (+/-), L363 (+/-) (refer to approximately 5%, 10%, 20%, 30%, 40% and 50% GFP positive cells)”. For the same molecule, in the assay with L363 cells, the “NFAT-GFP ASSAY: L363” value was “Raji (+/-), Nalm6 (+/-), L363 (+/-) (refer to approximately 5%, 10%, 20%, 30%, 40% and 50% GFP positive cells)”. For the same molecule, the “NFAT-GFP ASSAY: Raji” value in the assay on RAJI cells was “Raji (+/-), Nalm6 (+/-), L363 (+/-) (refer to approximately 5%, 10%, 20%, 30%, 40% and 50% GFP positive cells)”.

B5: 22060 (protein)
chain: MALPVTALLLPLALLLHAARPQLQLQESGPGLVKPSETLSLTCTVSGDSISSGDYYWGWIRQPPGKGLEWIGHIYYSGVTYYNPSLKSRVTISVDTSRNQFSLKLSSVTAADTAVYYCTREDSSNWRSRGQGTLVTVSSLEGSGGGGSGGGGSGEDLKNVFPPEVAVFEPSEAEISHTQKATLVCLATGFYPDHVELSWWVNGKEVHSGVCTDPQPLKEQPALNDSRYCLSSRLRVSATFWQNPRNHFRCQVQFYGLSENDEWTQDRAKPVTQIVSAEAWGRADCGFTSESYQQGVLSATILYEILLGKATLYAVLVSALVLMAMVKRKDSRGRAKRSGSGATNFSLLKQAGDVEENPGPTSMDWIWRILFLVGAATGAHSFEVQLLESGGGLIQPGGSLRLSCAASGFTFSSHAMTWVRQAPGKGLEWVSAISGSGDYTHYADSVKGRFTISRDNSKNTVYLQMNSLRAEDSAVYYCAKDEDGGSLLGHRGQGTLVTVSSTRIQNPDPAVYQLRDSKSSDKSVCLFTDFDSQTNVSQSKDSDVYITDKCVLDMRSMDFKSNSAVAWSNKSDFACANAFNNSIIPEDTFFPSPESSCDVKLVEKSFETDTNLNFQNLSVIGFRILLLKVAGFNLLMTLRLWSSRAKRSGSGVKQTLNFDLLKLAGDVESNPGPSRGHMTEYKPTVRLATRDDVPRAVRTLAAAFADYPATRHTVDPDRHIERVTELQELFLTRVGLDIGKVWVADDGAAVAVWTTPESVEAGAVFAEIGPRMAELSGSRLAAQQQMEGLLAPHRPKEPAWFLATVGVSPDHQGKGLGSAVVLPGVEAAERAGVPAFLETSAPRNLPFYERLGFTVTADVEVPEGPRTWCMTRKPGA
Turning to B5, the “NFAT-GFP ASSAY: Nalm6” value with Nalm6 cells is “+/- (refer to approximately 5%, 10%, 20%, 30%, 40% and 50% GFP positive cells)”. The “NFAT-GFP ASSAY: L363” value in the assay on L363 cells is 2+ (refer to approximately 5%, 10%, 20%, 30%, 40% and 50% GFP positive cells). Besides, in the assay with RAJI cells, the “NFAT-GFP ASSAY: Raji” value is 2+ (refer to approximately 5%, 10%, 20%, 30%, 40% and 50% GFP positive cells).

B6: 22035 (protein)
chain: MALPVTALLLPLALLLHAARPQLQLQESGPGLVKPSETLSLTCTVSGDSISSGDYYWGWIRQPPGKGLEWIGHIYYSGVTYYNPSLKSRVTISVDTSRNQFSLKLSSVTAADTAVYYCTREDSSNWRSRGQGTLVTVSSLDSGGGGSFEQLQLQESGPGLVKPSETLSLTCTVSGGSISSGDYYWGWIRQPPGKGLEWIGHIYYSGATYYNPSLKSRVTISVDTSRNQFSLKLSSVTAADTAVYYCTRDDSSNWRSRGQGTLVTVSSTRIQNPDPAVYQLRDSKSSDKSVCLFTDFDSQTNVSQSKDSDVYITDKTVLDMRSMDFKSNSAVAWSNKSDFACANAFNNSIIPEDTFFPSPESSCDVKLVEKSFETDTNLNFQNLSVIGFRILLLKVAGFNLLMTLRLWSSRAKRSGSGVKQTLNFDLLKLAGDVESNPGPSRGHMTEYKPTVRLATRDDVPRAVRTLAAAFADYPATRHTVDPDRHIERVTELQELFLTRVGLDIGKVWVADDGAAVAVWTTPESVEAGAVFAEIGPRMAELSGSRLAAQQQMEGLLAPHRPKEPAWFLATVGVSPDHQGKGLGSAVVLPGVEAAERAGVPAFLETSAPRNLPFYERLGFTVTADVEVPEGPRTWCMTRKPGA
Turning to B6, in the assay with Nalm6 cells, the “NFAT-GFP ASSAY: Nalm6” value was “Raji (+/-), Nalm6 (+/-), L363 (+/-) (refer to approximately 5%, 10%, 20%, 30%, 40% and 50% GFP positive cells)”. Also, the “NFAT-GFP ASSAY: L363” value in the assay with L363 cells is “Raji (+/-), Nalm6 (+/-), L363 (+/-) (refer to approximately 5%, 10%, 20%, 30%, 40% and 50% GFP positive cells)”. In addition, the “NFAT-GFP ASSAY: Raji” value in the assay with RAJI cells was “Raji (+/-), Nalm6 (+/-), L363 (+/-) (refer to approximately 5%, 10%, 20%, 30%, 40% and 50% GFP positive cells)”.
